From PMC5943514, “Substrate specificity of human MCPIP1 endoribonuclease” (Scientific Reports, 2018)
“And” between values parts separate entries of the source, which are not always exact repeats. Equal entries are not always repeated.

What was measured:
PIN D141N [1] = target: T1, PIN D141N (Homo sapiens, UniProt Q5D1E8 134-297, D141N); experiment: fluorescence intensity titration; 2.5 mM Mg2+; 25 mM Tris-HCl pH 7.9, 150 mM NaCl, 5% glycerol, 2.5 mM MgCl2, 1 mM DTT, 0.5 mM EDTA, 0.05 mM ZnCl2, 25 C; oligo 2 nM (full length) or 20 nM (PIN, PIN-ZF); settings: protein: recombinant, tags: N-terminal His6, chain copies: 2
T1 sequence: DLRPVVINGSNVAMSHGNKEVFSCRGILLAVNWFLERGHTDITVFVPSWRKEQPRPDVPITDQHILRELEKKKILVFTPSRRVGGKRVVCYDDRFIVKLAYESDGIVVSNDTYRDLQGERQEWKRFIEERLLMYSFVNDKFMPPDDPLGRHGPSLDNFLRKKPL

[2] = target: T2, MCPIP1 D141N (Regnase-1), full length (Homo sapiens, UniProt Q5D1E8 1-599, D141N); experiment: as above; settings: protein: recombinant, tags: none stated (purified by ion exchange), chain copies: 2
T2 sequence: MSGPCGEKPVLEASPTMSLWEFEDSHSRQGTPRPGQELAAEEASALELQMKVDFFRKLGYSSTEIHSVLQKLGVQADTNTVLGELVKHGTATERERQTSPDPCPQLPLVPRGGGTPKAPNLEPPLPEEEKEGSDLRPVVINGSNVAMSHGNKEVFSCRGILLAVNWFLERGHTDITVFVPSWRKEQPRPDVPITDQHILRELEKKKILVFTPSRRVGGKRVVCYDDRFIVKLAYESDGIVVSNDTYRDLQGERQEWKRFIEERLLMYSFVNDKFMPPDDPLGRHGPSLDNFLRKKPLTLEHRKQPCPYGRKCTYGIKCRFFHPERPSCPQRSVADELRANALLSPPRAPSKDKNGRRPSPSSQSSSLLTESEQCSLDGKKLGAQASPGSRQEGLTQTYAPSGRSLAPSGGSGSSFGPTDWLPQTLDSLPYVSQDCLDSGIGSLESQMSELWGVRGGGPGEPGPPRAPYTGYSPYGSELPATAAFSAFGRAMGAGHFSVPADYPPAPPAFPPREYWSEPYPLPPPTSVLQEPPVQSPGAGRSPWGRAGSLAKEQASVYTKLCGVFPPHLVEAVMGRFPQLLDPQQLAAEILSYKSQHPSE

PIN-ZF D141N [3] = target: T3, PIN-ZF D141N (Homo sapiens, UniProt Q5D1E8 134-327, D141N); experiment: as above; settings: protein: recombinant, tags: N-terminal His6, chain copies: 2
T3 sequence: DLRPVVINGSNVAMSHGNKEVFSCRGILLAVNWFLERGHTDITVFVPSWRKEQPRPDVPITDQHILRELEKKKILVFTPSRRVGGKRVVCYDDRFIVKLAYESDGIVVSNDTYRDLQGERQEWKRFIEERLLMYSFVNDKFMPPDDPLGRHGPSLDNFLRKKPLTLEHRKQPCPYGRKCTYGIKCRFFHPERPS

[4] = target: the molecule itself; experiment: SEC; analytical Superdex 200 Increase 10/300 GL calibrated with protein standards; 25 mM Tris pH 7.9, 300 mM NaCl, 10% glycerol, 1 mM DTT, 0.5 mM EDTA, also with 1.6 M urea; apparent molecular weight from the calibration curve, multiple Gaussian peak fit
PIN D141N [5] = target: T1, PIN D141N; experiment: fluorescence intensity titration; 2.5 mM Mg2+; 20 nM oligo; sequential 2:1 model; 25 mM Tris-HCl pH 7.9, 150 mM NaCl, 5% glycerol, 2.5 mM MgCl2, 1 mM DTT, 0.5 mM EDTA, 0.05 mM ZnCl2, 25 C; oligo 2 nM (full length) or 20 nM (PIN, PIN-ZF); settings: protein: recombinant; tags: N-terminal His6; chain copies: 2; label: 5' 6-FAM; hairpin
PIN-ZF D141N [6] = target: T3, PIN-ZF D141N; experiment: as above; settings: protein: recombinant; tags: N-terminal His6; chain copies: 2; label: 5' 6-FAM; hairpin
[7] = label: 5' 6-FAM on strand 1, blunt, strands mixed 1:1.2

Binder: UGUUGUU (ssRNA) [mIL-6 82-88 ssRNA]
- Kd (PIN D141N [1]; label: 5' 6-FAM, unstructured): 0.04 ± 0.012 µM
- Kd ([2]; label: 5' 6-FAM, unstructured): 0.0145 ± 0.0081 µM
- Kd (PIN-ZF D141N [3]; label: 5' 6-FAM, unstructured): 0.032 ± 0.02 µM

Binder: UGUUGUUCUCUACGAAGAACUGACA (structured_RNA) [mIL-6 82-106 3'FAM]
- Kd (PIN D141N [1]; label: 3' 6-FAM, hairpin): 0.0218 ± 0.0063 µM
- Kd ([2]; label: 3' 6-FAM, hairpin): 0.0086 ± 0.0026 µM
- Kd (PIN-ZF D141N [3]; label: 3' 6-FAM, hairpin): 0.0048 ± 0.0018 µM

Binder: UGUUCUCUACGAAGAAC (structured_RNA) [mIL-6 85-101 short stem]
- Kd (PIN D141N [1]; label: 5' 6-FAM, hairpin): 0.0207 ± 0.0072 µM
- Kd ([2]; label: 5' 6-FAM, hairpin): 0.0092 ± 0.004 µM
- Kd (PIN-ZF D141N [3]; label: 5' 6-FAM, hairpin): 0.02 ± 0.01 µM

B1: mIL-6 82-93 dsDNA (dsDNA)
DNA 1: TGTTGTTCTCTA
DNA 2: TAGAGAACAACA
- Kd (PIN D141N [1]; [7]): 0.056 ± 0.017 µM
- Kd [2, 7]: 0.118 ± 0.049 µM
- Kd (PIN-ZF D141N [3]; [7]): 0.08 ± 0.03 µM

B2: MCPIP1WT (Monocyte Chemoattractant Protein-1-Induced Protein 1), full-length (enzyme, human, UniProt Q5D1E8 1-599, looked up)
chain: MSGPCGEKPVLEASPTMSLWEFEDSHSRQGTPRPGQELAAEEASALELQMKVDFFRKLGYSSTEIHSVLQKLGVQADTNTVLGELVKHGTATERERQTSPDPCPQLPLVPRGGGTPKAPNLEPPLPEEEKEGSDLRPVVIDGSNVAMSHGNKEVFSCRGILLAVNWFLERGHTDITVFVPSWRKEQPRPDVPITDQHILRELEKKKILVFTPSRRVGGKRVVCYDDRFIVKLAYESDGIVVSNDTYRDLQGERQEWKRFIEERLLMYSFVNDKFMPPDDPLGRHGPSLDNFLRKKPLTLEHRKQPCPYGRKCTYGIKCRFFHPERPSCPQRSVADELRANALLSPPRAPSKDKNGRRPSPSSQSSSLLTESEQCSLDGKKLGAQASPGSRQEGLTQTYAPSGRSLAPSGGSGSSFGPTDWLPQTLDSLPYVSQDCLDSGIGSLESQMSELWGVRGGGPGEPGPPRAPYTGYSPYGSELPATAAFSAFGRAMGAGHFSVPADYPPAPPAFPPREYWSEPYPLPPPTSVLQEPPVQSPGAGRSPWGRAGSLAKEQASVYTKLCGVFPPHLVEAVMGRFPQLLDPQQLAAEILSYKSQHPSE
notes: human MCPIP1 encoded by ZC3H12A (synthetic gene optimised for E. coli, GenScript), full length, 1-599 aa; printed molecular weight 65.7 kDa; no tag is stated for the full-length protein; In solution a mixture of tetramer, dimer and monomer; also called Regnase-1; Regnase1; source: E. coli BL21-CodonPlus-RIL, purified (TMAE ion exchange in denaturing conditions, dialysis, Superdex 200 gel …)
- stoichiometry N [4]: 4 and 2

B3: MCPIP1_(D141N), full-length (enzyme, human, UniProt Q5D1E8 1-599, looked up)
chain: MSGPCGEKPVLEASPTMSLWEFEDSHSRQGTPRPGQELAAEEASALELQMKVDFFRKLGYSSTEIHSVLQKLGVQADTNTVLGELVKHGTATERERQTSPDPCPQLPLVPRGGGTPKAPNLEPPLPEEEKEGSDLRPVVINGSNVAMSHGNKEVFSCRGILLAVNWFLERGHTDITVFVPSWRKEQPRPDVPITDQHILRELEKKKILVFTPSRRVGGKRVVCYDDRFIVKLAYESDGIVVSNDTYRDLQGERQEWKRFIEERLLMYSFVNDKFMPPDDPLGRHGPSLDNFLRKKPLTLEHRKQPCPYGRKCTYGIKCRFFHPERPSCPQRSVADELRANALLSPPRAPSKDKNGRRPSPSSQSSSLLTESEQCSLDGKKLGAQASPGSRQEGLTQTYAPSGRSLAPSGGSGSSFGPTDWLPQTLDSLPYVSQDCLDSGIGSLESQMSELWGVRGGGPGEPGPPRAPYTGYSPYGSELPATAAFSAFGRAMGAGHFSVPADYPPAPPAFPPREYWSEPYPLPPPTSVLQEPPVQSPGAGRSPWGRAGSLAKEQASVYTKLCGVFPPHLVEAVMGRFPQLLDPQQLAAEILSYKSQHPSE
notes: human MCPIP1 encoded by ZC3H12A, full length, 1-599 aa, catalytic site mutant D141N; no tag is stated for the full-length protein; also called MCPIP_(D141N); source: E. coli BL21-CodonPlus-RIL, purified (TMAE ion exchange in denaturing conditions, dialysis, Superdex 200 gel filtration)
- stoichiometry N [4]: 2 and 4

Binder: UGUUCUCUAUGGAGAACU (structured_RNA) [hIL-6 82-99]
- Kd (PIN D141N [1]; label: 5' 6-FAM, hairpin): 0.0151 ± 0.0045 µM
- Kd ([2]; label: 5' 6-FAM, hairpin): 0.0041 ± 0.0036 µM
- Kd (PIN-ZF D141N [3]; label: 5' 6-FAM, hairpin): 0.0132 ± 0.0068 µM

Binder: UGUUGUUCUCUA (ssRNA) [mIL-6 82-93 ssRNA]
- Kd (PIN D141N [1]; label: 5' 6-FAM, unstructured): 0.041 ± 0.012 µM
- Kd ([2]; label: 5' 6-FAM, unstructured): 0.019 ± 0.011 µM
- Kd (PIN-ZF D141N [3]; label: 5' 6-FAM, unstructured): 0.034 ± 0.018 µM

Binder: UGUUGUACACUACGAUGUACUGACA (structured_RNA) [mIL-6 82-106 YR]
- Kd (PIN D141N [1]; label: 5' 6-FAM, hairpin): 0.0251 ± 0.007 µM
- Kd ([2]; label: 5' 6-FAM, hairpin): 0.0095 ± 0.0052 µM
- Kd (PIN-ZF D141N [3]; label: 5' 6-FAM, hairpin): 0.0144 ± 0.0096 µM

Binder: ACAGUCAAGACUACGAUCUUGUUGU (structured_RNA) [mIL-6 82-106 RS (reverse stem)]
- Kd (PIN D141N [1]; label: 5' 6-FAM, hairpin): 0.0393 ± 0.0086 µM
- Kd ([2]; label: 5' 6-FAM, hairpin): 0.0098 ± 0.0023 µM
- Kd (PIN-ZF D141N [3]; label: 5' 6-FAM, hairpin): 0.0151 ± 0.0073 µM

Binder: UGUUGUUCUCUACGAAGAACUGACA (structured_RNA) [mIL-6 82-106 5'FAM]
- Kd (PIN D141N [5]): 0.0241 ± 0.0073 µM
- Kd (PIN-ZF D141N [6]): 0.0066 ± 0.0031 µM

Binder: TGTTGTTCTCTA (ssDNA) [mIL-6 82-93 ssDNA]
- Kd (PIN D141N [1]; label: 5' 6-FAM): 0.0217 ± 0.0066 µM
- Kd ([2]; label: 5' 6-FAM): 0.0183 ± 0.0082 µM
- Kd (PIN-ZF D141N [3]; label: 5' 6-FAM): 0.036 ± 0.02 µM

Binder: UGGAAAGUAUCUUUCCU (structured_RNA) [consensus stem-loop]
- Kd (PIN D141N [1]; label: 5' 6-FAM, hairpin): 0.036 ± 0.017 µM
- Kd ([2]; label: 5' 6-FAM, hairpin): 0.0038 ± 0.0028 µM
- Kd (PIN-ZF D141N [3]; label: 5' 6-FAM, hairpin): 0.0091 ± 0.0032 µM

Binder: UUUUUUUUUUUU (ssRNA) [poly-U 12 nt]
- Kd (PIN D141N [1]; label: 5' 6-FAM): 0.039 ± 0.011 µM
- Kd ([2]; label: 5' 6-FAM): 0.0148 ± 0.0072 µM
- Kd (PIN-ZF D141N [3]; label: 5' 6-FAM): 0.043 ± 0.023 µM
